Data as given in PMC3215729, “Rv2607 from Mycobacterium tuberculosis Is a Pyridoxine 5′-Phosphate Oxidase with Unusual Substrate Specificity” (PLoS ONE, 2011).

Target: the molecule itself
Assay: native MS

B1: Rv2607 from Mycobacterium tuberculosis H37Rv, amino-terminal 6x-histidine tag fusion protein (enzyme)
chain: MDDDAQMVAIDKDQLARMRGEYGPEKDGCGDLDFDWLDDGWLTLLRRWLNDAQRAGVSEPNAMVLATVADGKPVTRSVLCKILDESGVAFFTSYTSAKGEQLAVTPYASATFPWYQLGRQAHVQGPVSKVSTEEIFTYWSMRPRGAQLGAWASQQSRPVGSRAQLDNQLAEVTRRFADQDQIPVPPGWGGYRIAPEIVEFWQGRENRMHNRIRVANGRLERLQP
notes: also called PNPOx; pyridoxine 5'-phosphate oxidase; not shown: His6, N-terminal, kept
**Q.** How did the “stoichiometry N” value turn out when B1 was run?
**A.** Its value is 2.
